{
  "source": "paper PMC11187563",
  "about": "“The importance of tyrosines in multimers of cyclic RGD nonapeptides: towards αvβ6-integrin targeted radiotherapeutics” (RSC Medicinal Chemistry, 2024)",
  "key": {"[1]": {"assay": "Ex vivo biodistribution of 177Lu-labeled peptide tetramers in H2009 xenografted SCID mice", "settings": "CB17 SCID, mouse, iv, total radioactivity, H2009 bearing SCID mice; for tissue uptake at 1.5 h / tissue to tissue ratio at 1.5 h: 43 pmol, 90 min p.i.; for tissue uptake at 72 h / tissue to tissue ratio at 72 h: 64 pmol, 3 d p.i.", "outline": "(§1)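 SCID mice carried subcutaneous H2009 xenografts on the right shoulder. 177Lu-labeled conjugates were injected i.v., and ex vivo organ distribution was measured at two time points post-injection.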"}, "[2]": {"tested_on": "αvβ6-integrin expressing human lung adenocarcinoma cell line H2009 xenografts", "assay": "Ex vivo biodistribution of 177Lu-labeled peptide tetramers in H2009 xenografted SCID mice", "settings": "H2009 bearing SCID mice", "outline": "as §1"}, "[3]": {"settings": "H2009 tumor, read-out: Tumor H2009 %IA/g"}, "[4]": {"settings": "adrenals, read-out: Adrenals %IA/g"}, "[5]": {"settings": "heart (myocard), read-out: Heart (myocard) %IA/g"}, "[6]": {"settings": "kidneys, read-out: Kidneys %IA/g"}, "[7]": {"settings": "large intestine (empty), read-out: Large intestine (empty) %IA/g"}, "[8]": {"settings": "pancreas, read-out: Pancreas %IA/g"}, "[9]": {"settings": "small intestine (empty), read-out: Small intestine (empty) %IA/g"}, "[10]": {"settings": "stomach (empty), read-out: Stomach (empty) %IA/g"}, "[11]": {"settings": "tumor/blood, read-out: tumor/organ ratio, Blood"}, "[12]": {"settings": "tumor/heart (myocard), read-out: tumor/organ ratio, Heart (myocard)"}, "[13]": {"settings": "tumor/liver, read-out: tumor/organ ratio, Liver"}, "[14]": {"settings": "tumor/lung, read-out: tumor/organ ratio, Lung"}, "[15]": {"settings": "tumor/pancreas, read-out: tumor/organ ratio, Pancreas"}, "[16]": {"settings": "tumor/spleen, read-out: tumor/organ ratio, Spleen"}},
  "note": "Read-outs that look alike come from different tables or passages of the source.",
  "data": [
    {"smiles": "CC(C)C[C@@H]1NC(=O)[C@H](CC(=O)O)NC(=O)CNC(=O)[C@H](CCCNC(=N)N)NC(=O)[C@H](Cc2ccccc2)NC(=O)[C@H](CCCCNC(=O)CCc2cn(CCCNC(=O)CCP(=O)(O)CN3CCN(CP(=O)(O)CCC(=O)NCCCn4cc(CCC(=O)NCCCC[C@H]5C(=O)N[C@@H](Cc6ccccc6)C(=O)N[C@@H](CCCNC(=N)N)C(=O)NCC(=O)N[C@@H](CC(=O)O)C(=O)N[C@@H](CC(C)C)C(=O)N[C@@H](C)C(=O)N[C@@H](Cc6ccc(O)cc6)C(=O)N6CCC[C@@H]6C(=O)N5C)nn4)CCN(CP(=O)(O)CCC(=O)NCCCn4cc(CCC(=O)NCCCC[C@H]5C(=O)N[C@@H](Cc6ccccc6)C(=O)N[C@@H](CCCNC(=N)N)C(=O)NCC(=O)N[C@@H](CC(=O)O)C(=O)N[C@@H](CC(C)C)C(=O)N[C@@H](C)C(=O)N[C@@H](Cc6ccc(O)cc6)C(=O)N6CCC[C@@H]6C(=O)N5C)nn4)CCN(CP(=O)(O)CCC(=O)NCCCn4cc(CCC(=O)NCCCC[C@H]5C(=O)N[C@@H](Cc6ccccc6)C(=O)N[C@@H](CCCNC(=N)N)C(=O)NCC(=O)N[C@@H](CC(=O)O)C(=O)N[C@@H](CC(C)C)C(=O)N[C@@H](C)C(=O)N[C@@H](Cc6ccc(O)cc6)C(=O)N6CCC[C@@H]6C(=O)N5C)nn4)CC3)nn2)N(C)C(=O)[C@H]2CCCN2C(=O)[C@H](Cc2ccc(O)cc2)NC(=O)[C@H](C)NC1=O", "note": "[Compound 177Lu-Y4, metal not drawn]", "values": [
      {"measurement": "tissue uptake at 1.5 h", "setting": "[1]; [3]", "result": 6.91, "unit": "%ID/g"},
      {"measurement": "tissue uptake at 72 h", "setting": "[1]; [3]", "result": 2.07, "unit": "%ID/g"},
      {"measurement": "tissue uptake at 1.5 h", "setting": "[1]; [4]", "result": 0.52, "unit": "%ID/g"},
      {"measurement": "tissue uptake at 72 h", "setting": "[1]; [4]", "result": 0.9, "unit": "%ID/g"},
      {"measurement": "tissue uptake at 1.5 h", "setting": "[1]; blood, read-out: Blood %IA/g", "result": 1.33, "unit": "%ID/g"},
      {"measurement": "tissue uptake at 72 h", "setting": "[1]; blood, read-out: Blood %IA/g", "result": 0.02, "unit": "%ID/g"},
      {"measurement": "tissue uptake at 1.5 h", "setting": "[1]; bone, read-out: Bone %IA/g", "result": 1.84, "unit": "%ID/g"},
      {"measurement": "tissue uptake at 72 h", "setting": "[1]; bone, read-out: Bone %IA/g", "result": 0.55, "unit": "%ID/g"},
      {"measurement": "tissue uptake at 1.5 h", "setting": "[1]; [5]", "result": 0.74, "unit": "%ID/g"},
      {"measurement": "tissue uptake at 72 h", "setting": "[1]; [5]", "result": 0.27, "unit": "%ID/g"},
      {"measurement": "tissue uptake at 1.5 h", "setting": "[1]; [6]", "result": 219, "unit": "%ID/g"},
      {"measurement": "tissue uptake at 72 h", "setting": "[1]; [6]", "result": 203, "unit": "%ID/g"},
      {"measurement": "tissue uptake at 1.5 h", "setting": "[1]; [7]", "result": 6.99, "unit": "%ID/g"},
      {"measurement": "tissue uptake at 72 h", "setting": "[1]; [7]", "result": 1.33, "unit": "%ID/g"},
      {"measurement": "tissue uptake at 1.5 h", "setting": "[1]; liver, read-out: Liver %IA/g", "result": 1.06, "unit": "%ID/g"},
      {"measurement": "tissue uptake at 72 h", "setting": "[1]; liver, read-out: Liver %IA/g", "result": 0.88, "unit": "%ID/g"},
      {"measurement": "tissue uptake at 1.5 h", "setting": "[1]; lung, read-out: Lung %IA/g", "result": 6.74, "unit": "%ID/g"},
      {"measurement": "tissue uptake at 72 h", "setting": "[1]; lung, read-out: Lung %IA/g", "result": 1.21, "unit": "%ID/g"},
      {"measurement": "tissue uptake at 1.5 h", "setting": "[1]; muscle, read-out: Muscle %IA/g", "result": 1, "unit": "%ID/g"},
      {"measurement": "tissue uptake at 72 h", "setting": "[1]; muscle, read-out: Muscle %IA/g", "result": 0.28, "unit": "%ID/g"},
      {"measurement": "tissue uptake at 1.5 h", "setting": "[1]; [8]", "result": 0.37, "unit": "%ID/g"},
      {"measurement": "tissue uptake at 72 h", "setting": "[1]; [8]", "result": 0.19, "unit": "%ID/g"},
      {"measurement": "tissue uptake at 1.5 h", "setting": "[1]; [9]", "result": 3.05, "unit": "%ID/g"},
      {"measurement": "tissue uptake at 72 h", "setting": "[1]; [9]", "result": 0.26, "unit": "%ID/g"},
      {"measurement": "tissue uptake at 1.5 h", "setting": "[1]; spleen, read-out: Spleen %IA/g", "result": 4.71, "unit": "%ID/g"},
      {"measurement": "tissue uptake at 72 h", "setting": "[1]; spleen, read-out: Spleen %IA/g", "result": 1.31, "unit": "%ID/g"},
      {"measurement": "tissue uptake at 1.5 h", "setting": "[1]; [10]", "result": 10.7, "unit": "%ID/g"},
      {"measurement": "tissue uptake at 72 h", "setting": "[1]; [10]", "result": 3.88, "unit": "%ID/g"},
      {"measurement": "tissue to tissue ratio at 72 h", "setting": "[1]; tumor / adrenals, read-out: tumor/organ ratio, Adrenals", "result": 4.1},
      {"measurement": "tissue to tissue ratio at 72 h", "setting": "[1]; tumor / bone, read-out: tumor/organ ratio, Bone", "result": 3.8},
      {"measurement": "tissue to tissue ratio at 72 h", "setting": "[1]; tumor / large intestine (empty), read-out: tumor/organ ratio, Large intestine (empty)", "result": 1.6},
      {"measurement": "tissue to tissue ratio at 72 h", "setting": "[1]; tumor / muscle, read-out: tumor/organ ratio, Muscle", "result": 9.1},
      {"measurement": "tissue to tissue ratio at 72 h", "setting": "[1]; tumor / small intestine (empty), read-out: tumor/organ ratio, Small intestine (empty)", "result": 8.2},
      {"measurement": "tissue to tissue ratio at 72 h", "setting": "[1]; tumor / stomach (empty), read-out: tumor/organ ratio, Stomach (empty)", "result": 0.6},
      {"measurement": "tissue to tissue ratio at 1.5 h", "setting": "[1]; tumor/adrenals, read-out: tumor/organ ratio, Adrenals", "result": 13.9},
      {"measurement": "tissue to tissue ratio at 1.5 h", "setting": "[1]; [11]", "result": 5.2},
      {"measurement": "tissue to tissue ratio at 72 h", "setting": "[1]; [11]", "result": 108},
      {"measurement": "tissue to tissue ratio at 1.5 h", "setting": "[1]; tumor/bone, read-out: tumor/organ ratio, Bone", "result": 3.8},
      {"measurement": "tissue to tissue ratio at 1.5 h", "setting": "[1]; [12]", "result": 9.6},
      {"measurement": "tissue to tissue ratio at 72 h", "setting": "[1]; [12]", "result": 8.2},
      {"measurement": "tissue to tissue ratio at 1.5 h", "setting": "[1]; tumor/large intestine (empty), read-out: tumor/organ ratio, Large intestine (empty)", "result": 1},
      {"measurement": "tissue to tissue ratio at 1.5 h", "setting": "[1]; [13]", "result": 6.6},
      {"measurement": "tissue to tissue ratio at 72 h", "setting": "[1]; [13]", "result": 2.6},
      {"measurement": "tissue to tissue ratio at 1.5 h", "setting": "[1]; [14]", "result": 1},
      {"measurement": "tissue to tissue ratio at 72 h", "setting": "[1]; [14]", "result": 1.7},
      {"measurement": "tissue to tissue ratio at 1.5 h", "setting": "[1]; tumor/muscle, read-out: tumor/organ ratio, Muscle", "result": 8.2},
      {"measurement": "tissue to tissue ratio at 1.5 h", "setting": "[1]; [15]", "result": 18.6},
      {"measurement": "tissue to tissue ratio at 72 h", "setting": "[1]; [15]", "result": 11.3},
      {"measurement": "tissue to tissue ratio at 1.5 h", "setting": "[1]; tumor/small intestine (empty), read-out: tumor/organ ratio, Small intestine (empty)", "result": 2.6},
      {"measurement": "tissue to tissue ratio at 1.5 h", "setting": "[1]; [16]", "result": 1.5},
      {"measurement": "tissue to tissue ratio at 72 h", "setting": "[1]; [16]", "result": 1.7},
      {"measurement": "tissue to tissue ratio at 1.5 h", "setting": "[1]; tumor/stomach (empty), read-out: tumor/organ ratio, Stomach (empty)", "result": 0.7},
      {"measurement": "tumor/organ ratio, Kidneys", "setting": "[2]; 90 min p.i.", "result": 0.0},
      {"measurement": "tumor/organ ratio, Kidneys", "setting": "[2]; 3 d p.i.", "result": 0.0}
    ]}
  ]
}
